From patent publication US8263074B2, “Fibroblast growth factor receptor-1 inhibitors and methods of treatment thereof” (ImClone LLC, priority 2003, dated 2012)

Key:
FGFR-2b = molecular target: T1, FGFR-2b (Homo sapiens, UniProt P21802); assay: BiaCore binding kinetics; details: BiaCore kinetic analysis
T1 construct: purchased R&D Systems

FGFR-1c = molecular target: T2, FGFR-1c (Homo sapiens, UniProt P11362); assay: BiaCore binding kinetics; details: BiaCore biosensor; read-out: Binding Kinetic (Kd), FGFR-1c
T2 construct: purchased R&D Systems
T2 sequence (P11362 22-822): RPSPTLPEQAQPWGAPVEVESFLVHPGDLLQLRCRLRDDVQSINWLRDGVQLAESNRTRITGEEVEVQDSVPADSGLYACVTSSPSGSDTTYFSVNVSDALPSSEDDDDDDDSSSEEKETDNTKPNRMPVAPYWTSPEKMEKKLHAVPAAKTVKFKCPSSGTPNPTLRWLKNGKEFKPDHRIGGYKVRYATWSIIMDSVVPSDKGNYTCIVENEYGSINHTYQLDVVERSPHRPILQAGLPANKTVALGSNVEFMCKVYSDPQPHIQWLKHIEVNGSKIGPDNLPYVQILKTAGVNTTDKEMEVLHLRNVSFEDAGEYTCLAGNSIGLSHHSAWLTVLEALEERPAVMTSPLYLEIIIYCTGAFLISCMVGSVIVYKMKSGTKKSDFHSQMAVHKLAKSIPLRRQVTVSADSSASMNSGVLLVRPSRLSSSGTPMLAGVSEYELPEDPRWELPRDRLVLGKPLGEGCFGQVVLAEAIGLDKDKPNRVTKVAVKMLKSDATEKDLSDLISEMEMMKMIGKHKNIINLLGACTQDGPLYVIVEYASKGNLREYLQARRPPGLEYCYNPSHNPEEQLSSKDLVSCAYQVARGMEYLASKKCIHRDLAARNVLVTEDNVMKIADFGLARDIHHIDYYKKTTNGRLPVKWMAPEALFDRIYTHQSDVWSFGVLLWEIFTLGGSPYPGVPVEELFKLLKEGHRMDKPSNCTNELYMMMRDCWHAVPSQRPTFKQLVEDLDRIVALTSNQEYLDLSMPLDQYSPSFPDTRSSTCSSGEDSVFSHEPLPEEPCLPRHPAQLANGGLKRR

[1] = Repeated-dose study in female athymic nude mice: body weight, food intake, rearing, blood glucose; format: in vivo; details: day 64
FGFR-3b = molecular target: T3, FGFR-3b (Homo sapiens, UniProt P22607); assay: BiaCore binding kinetics; details: BiaCore kinetic analysis
T3 construct: purchased R&D Systems
T3 sequence (P22607 23-808 isoform P22607-2 limits assumed): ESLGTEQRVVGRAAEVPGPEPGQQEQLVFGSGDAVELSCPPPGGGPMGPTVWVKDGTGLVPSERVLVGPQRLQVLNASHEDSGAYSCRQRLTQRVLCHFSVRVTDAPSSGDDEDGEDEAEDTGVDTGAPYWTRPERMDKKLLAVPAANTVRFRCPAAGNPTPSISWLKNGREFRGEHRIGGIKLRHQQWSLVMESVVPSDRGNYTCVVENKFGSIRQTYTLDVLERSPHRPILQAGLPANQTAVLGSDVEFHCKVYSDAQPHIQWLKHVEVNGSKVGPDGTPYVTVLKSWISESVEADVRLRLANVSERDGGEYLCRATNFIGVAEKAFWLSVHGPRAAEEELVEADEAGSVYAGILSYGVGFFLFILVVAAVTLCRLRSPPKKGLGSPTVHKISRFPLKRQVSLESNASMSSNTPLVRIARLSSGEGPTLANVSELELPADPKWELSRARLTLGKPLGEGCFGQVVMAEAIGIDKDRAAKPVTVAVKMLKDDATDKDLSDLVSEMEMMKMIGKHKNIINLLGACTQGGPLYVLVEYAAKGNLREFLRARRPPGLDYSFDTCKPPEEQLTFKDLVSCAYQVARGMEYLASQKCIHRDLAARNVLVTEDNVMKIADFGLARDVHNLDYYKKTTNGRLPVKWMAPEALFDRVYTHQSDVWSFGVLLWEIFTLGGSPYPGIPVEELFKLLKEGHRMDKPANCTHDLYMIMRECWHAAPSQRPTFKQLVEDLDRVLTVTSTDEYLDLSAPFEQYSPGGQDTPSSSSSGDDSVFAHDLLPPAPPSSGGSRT

human adipocytes = assay: Adipocyte proliferation assay (3H-thymidine); format: cell-based; details: 15 ng/ml FGF-2, 60 hrs
Method: Two-week-old (after induced differentiation) grade 2 human adipocytes were obtained from Zen-Bio Inc. (Research Triangle, N.C.), and were maintained in the shipping media in a 96-well tissue culture plate. To evaluate the effects of FGF-2 on the proliferation of adipocytes, recombinant FGF-2 (R&D systems) was serially diluted and added to the wells of the plate. The cells were allowed to grow in the incubator for 60 hrs, before the level of ^3H-thymidine incorporation was determined. To evaluate the effects of FR1-H7 on adipocytes proliferation, the antibody was serially diluted and added to the cells before addition of recombinant FGF-2 to a final concentration of 15 ng/ml. ^3H-thymidine incorporation was determined after 60 hrs of incubation.

FGFR-3c = molecular target: T4, FGFR-3c (Homo sapiens, UniProt P22607); assay: BiaCore binding kinetics; details: BiaCore kinetic analysis
T4 construct: purchased R&D Systems
T4 sequence (P22607 23-806): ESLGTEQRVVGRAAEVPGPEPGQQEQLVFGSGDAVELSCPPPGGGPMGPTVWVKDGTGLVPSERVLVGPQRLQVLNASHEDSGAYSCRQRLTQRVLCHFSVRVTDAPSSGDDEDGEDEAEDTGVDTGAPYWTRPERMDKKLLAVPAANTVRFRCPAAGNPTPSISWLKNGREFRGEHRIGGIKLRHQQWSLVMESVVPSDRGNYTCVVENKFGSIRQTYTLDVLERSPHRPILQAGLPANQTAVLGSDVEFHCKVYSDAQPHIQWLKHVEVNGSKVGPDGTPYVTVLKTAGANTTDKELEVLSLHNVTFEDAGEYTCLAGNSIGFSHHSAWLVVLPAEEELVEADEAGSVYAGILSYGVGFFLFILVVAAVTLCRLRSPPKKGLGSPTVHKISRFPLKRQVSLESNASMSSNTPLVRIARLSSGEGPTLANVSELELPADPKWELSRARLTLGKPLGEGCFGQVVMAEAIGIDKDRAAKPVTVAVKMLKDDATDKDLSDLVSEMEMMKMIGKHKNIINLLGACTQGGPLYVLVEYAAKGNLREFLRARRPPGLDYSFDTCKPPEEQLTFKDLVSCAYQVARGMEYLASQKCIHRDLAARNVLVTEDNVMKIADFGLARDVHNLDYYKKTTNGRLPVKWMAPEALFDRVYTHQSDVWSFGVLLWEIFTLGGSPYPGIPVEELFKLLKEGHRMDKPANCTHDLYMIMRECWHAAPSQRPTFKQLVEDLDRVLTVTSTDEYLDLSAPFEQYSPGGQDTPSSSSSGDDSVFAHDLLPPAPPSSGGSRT

FGFR-1(IIIb) = molecular target: T5, FGFR-1(IIIb) (Homo sapiens, UniProt P11362); assay: ELISA binding assay
T5 construct: purchased R&D Systems
T5 sequence (P11362 22-822 isoform P11362-19 limits assumed): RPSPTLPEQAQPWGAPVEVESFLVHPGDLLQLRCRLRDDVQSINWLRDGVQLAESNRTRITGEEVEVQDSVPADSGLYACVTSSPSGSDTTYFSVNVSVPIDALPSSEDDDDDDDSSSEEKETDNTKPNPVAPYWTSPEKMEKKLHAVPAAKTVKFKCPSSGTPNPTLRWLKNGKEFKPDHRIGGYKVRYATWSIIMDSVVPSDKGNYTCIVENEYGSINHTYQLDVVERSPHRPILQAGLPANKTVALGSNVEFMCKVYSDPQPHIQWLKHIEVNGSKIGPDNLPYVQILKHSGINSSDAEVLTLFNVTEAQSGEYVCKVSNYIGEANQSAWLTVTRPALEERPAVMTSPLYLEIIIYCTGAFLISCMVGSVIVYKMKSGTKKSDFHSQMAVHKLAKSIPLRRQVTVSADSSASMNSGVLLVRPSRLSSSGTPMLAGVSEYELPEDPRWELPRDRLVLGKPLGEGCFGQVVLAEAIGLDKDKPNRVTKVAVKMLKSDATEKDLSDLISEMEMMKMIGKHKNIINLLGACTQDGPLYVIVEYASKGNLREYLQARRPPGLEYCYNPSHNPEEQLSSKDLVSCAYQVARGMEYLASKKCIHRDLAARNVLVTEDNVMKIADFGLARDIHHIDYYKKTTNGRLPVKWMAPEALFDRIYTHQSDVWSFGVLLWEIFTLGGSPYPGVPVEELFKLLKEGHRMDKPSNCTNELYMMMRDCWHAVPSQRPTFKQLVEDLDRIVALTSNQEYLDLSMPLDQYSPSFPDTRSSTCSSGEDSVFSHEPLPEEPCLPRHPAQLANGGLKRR
Method: (§1) Recombinant FGFRs (R&D systems) at a concentration of 1 μg/ml in PBS were coated on 96-well plates at room temperature for 2 hrs. The plates were washed 3 times with 0.2% Tween20/PBS, and blocked with 5% milk/PBS for 2 hrs before use. FR1-H7 or FR1-A1 was added to the plate and serially diluted in 0.2% Tween20/PBS. The plate was incubated at room temperature for 2 more hrs. The captured antibodies were detected using an anti-human light chain monoclonal antibody conjugated with […] (Pierce Biotechnology, Rockford, Ill.) solution prepared according to supplier's instructions.

other FGFRs = assay: ELISA binding assay
Method: as §1

[2] = Single-dose short-term study in female athymic nude mice: body and tissue weights, serum chemistry; format: in vivo
Method: Short-term effects of the FR1-H7 antibody on serum levels of insulin, leptin, glucose, and triglycerides were examined by injecting 4 mg/kg antibody or control vehicle into female athymic nude mice. Samples were collected and evaluated before treatment and 6, 24, and 48 hours after treatment. Alanine aminotransferase (ALT), […], blood urea nitrogen (BUN), total serum proteins, and serum albumin levels were measured using serum samples taken 48 hours after treatment. The mice were sacrificed and weights of their left parametrial fat pad, left tibialis anterior muscle, left posterior liver lobe, and spleen were also taken.

[3] = Body weight, food intake and adipose tissue in db/db mice; format: in vivo; details: 4 mg/kg s.c.
Method: The db/db 7 week old mice were injected subcutaneously with 4 mg/kg antibody on a Monday, Wednesday, and Friday schedule with body weights being measured before each injection and on day 7. Food intake was monitored as well on days 1, 2, 3, 4, and 7. The db/db animals were sacrificed on day 7 and their intrascapular brown fat, epididymal white adipose tissue, and inguinal subcutaneous white adipose tissue were sampled and weighed.

[4] = Energy expenditure and body composition in C57 black mice (incl. paired-feeding); format: in vivo
Method: To elucidate the mechanism of the weight-loss induced by FGFR antagonistic antibodies, the effect of FR1-H7 on energy expenditure and body composition of mice was studied. […] A paired-feeding experiment was also conducted which food consumption of control antibody treated animals was restrained to exact that of FR1-H7 treated animals (FIG. 27). […] Moreover, body composition (Day 1 and 5) and energy consumption determined for the two groups were mostly indistinguishable.
This study consisted of two stages. In the first stage, female C57 black mice (Charles River Laboratories, Wilmington, Mass.) were randomized into two groups (n=16) and individually housed in a metabolic cage. Both groups of Mice were given hi-carbohydrate content chow and water ad libitum. […] Body composition was determined using NMR on Day 1 and Day 5. Body weight and food consumption were determined daily. Energy expenditure, ambulatory activities, and oxygen consumption and were monitored continuously. RER were calculated based on energy expenditure and oxygen consumption.
In the second stage, both groups of Mice were given water ad libitum, but only 2 g of hi-carbohydrate content chow each animal per day. The amount of food given was determined in the first stage experiment to be the averaged daily food assumption of those animals one day after being treated with FR1-H7 (10 mg/kg body weight, intraperitonaeally). […]

FGFR-1 = molecular target: T6, FGFR-1 (Homo sapiens, UniProt P11362); assay: Phosphorylation assay in FGFR-1 expressing L6 cells (western blot); format: cell-based; details: anti-phospho-tyrosine western blot
T6 construct: expressed in transfected cells; host or cells: L6 (ATCC), pBABE retroviral vector
T6 sequence (P11362 22-822): as the sequence (P11362 22-822) above
Method: FGFR-1 expressing L6 cells were cultured in 10% FBS, DMEM, in a 24-well tissue culture plate till confluency. Cells were Serum starved in 5 μg/ml heparin, 0.1% FBS, DMEM, for 8-24 hrs. Either FR1-H7 or FR1-A1 was added to the media and allowed to bind with the cell surface receptors at 37° C. for 1 hr. Cells were then stimulated with 20 ng/ml FGFs at 37° C. for 10 min before they were lyzed using ice-cold lysis buffer for 30 min. Cell lysate was subjected to SDS-PAGE followed by western blot. Membranes were probed with anti-phospho-tyrosine antibody (Cell Signaling Technology, Inc., Beverly, Mass.) for detection of phosphorylated FGFR-1 receptors according to supplier's instructions.
The phosphorylation assay for small molecules is essentially the same as the phosphorylation assay described in Examples 7 and 15 and Phosphorylation Assay, except that small molecule compounds was used instead of FGFR-1 antibodies in all occasions. […] Equal amount of cell lysates were applied to each sample lane. Receptor auto-phosphorylation was probed using anti-phospho-tyrosine antibody as described in the original patent.

FGFR-1(IIIc) = FGFR-1(IIIc) (Homo sapiens, UniProt P11362); assay: ELISA binding assay; parameters: purchased R&D Systems
Sequence of FGFR-1(IIIc) (P11362 22-822): as above
Method: as §1

T1 sequence (P21802 22-822 isoform P21802-3 limits assumed): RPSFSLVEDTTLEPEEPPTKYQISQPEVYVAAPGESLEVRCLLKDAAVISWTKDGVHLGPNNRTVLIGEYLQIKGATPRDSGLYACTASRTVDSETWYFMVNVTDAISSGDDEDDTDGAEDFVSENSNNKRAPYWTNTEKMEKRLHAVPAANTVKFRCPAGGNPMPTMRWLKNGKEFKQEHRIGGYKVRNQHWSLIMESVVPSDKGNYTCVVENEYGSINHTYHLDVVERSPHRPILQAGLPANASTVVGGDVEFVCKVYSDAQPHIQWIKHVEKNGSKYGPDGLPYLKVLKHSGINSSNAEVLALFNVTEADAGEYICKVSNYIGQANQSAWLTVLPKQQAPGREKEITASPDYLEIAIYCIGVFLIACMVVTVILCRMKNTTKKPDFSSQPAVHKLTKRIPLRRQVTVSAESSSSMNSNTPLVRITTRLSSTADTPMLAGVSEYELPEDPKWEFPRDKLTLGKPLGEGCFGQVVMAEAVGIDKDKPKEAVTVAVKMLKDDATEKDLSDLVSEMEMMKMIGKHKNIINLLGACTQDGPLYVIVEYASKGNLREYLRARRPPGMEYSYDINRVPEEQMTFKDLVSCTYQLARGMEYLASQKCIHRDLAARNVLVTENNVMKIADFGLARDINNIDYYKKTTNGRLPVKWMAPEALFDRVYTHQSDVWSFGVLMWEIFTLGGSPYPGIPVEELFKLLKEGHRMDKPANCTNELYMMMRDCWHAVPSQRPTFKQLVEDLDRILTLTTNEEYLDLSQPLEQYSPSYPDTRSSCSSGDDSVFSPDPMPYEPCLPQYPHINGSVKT

B1: FR1-H7: human monoclonal antibody from phage Fab library, specific for FGFR-1(IIIb) and/or FGFR-1(IIIc), and/or FGFR-4(IIIc); VH/VL SEQ ID NOS:7, 8 (antibody, listed as Homo sapiens)
VH: MAEVQLVQSGAEVKKPGASVKVSCKVSGYTFTDYYMHWVQQAPGKGLEWMGLVDPEDGETIYAEKFQGRVTITADTSTDTAYMELSSLRSEDTAVYYCARDDYMDVWGKGTLVTVSSASTKGP
VL: LETTLTQSPDTLSLSPGEGATLSCRASQSVSGSALAWYQQKPGQAPRLLIYDASSRATGVPDRFSGSGSGADFSLTISRLEPEDFAVYSCQQYGSSPLTFGPGTKVDVKRTVAAPSVFIFPPSDEQLKSGTASVVCLLNNFYPREAKVQWKVD
FGFR-2b
  Kd: > 1000 nM
FGFR-1c
  Kd: 0.04 nM
[1]
  non-fasted blood glucose after weight recovery: restored to normal range
FGFR-3b
  Kd: > 1000 nM
Human adipocytes
  FGF-2-stimulated proliferation of adipocytes: inhibited the FGF-2-stimulated proliferation of adipocytes in a dose dependant manner
FGFR-3c
  Kd: > 1000 nM
FGFR-1(IIIb)
  binding to FGFR-1(IIIb): strong affinities
Other FGFRs
  binding to the other FGFRs: does not recognize
[2]; single 4 mg/kg
  serum insulin level: significantly reduced
  serum leptin level: significantly reduced
  serum triglycerides level: significantly reduced
[2]; single 4 mg/kg s.c., 48 hours
  reduction of averaged body weight compared to control groups: approximately 6%
  weight reduction of parametrial fat pad: approximately 60%
  weights of muscle, liver, and spleen: appear to be normal
[2]; single 4 mg/kg, 48 hours
  levels of ALT, CPK, BUN, total serum proteins, and serum albumin versus control: no significant differences
[2]; single 4 mg/kg, 48 hours after treatment
  serum glucose level: did not affect
[3]; 7-day period
  food intakes: gradual reduction
[3]; Day 7
  weight reduction of the total body weight: approximately 10%
[3]; day 7
  weight of intrascapular brown fat tissue: significant reduction
  weights of epididymal white adipose tissue and inguinal subcutaneous white adipose tissue: changed little
[4]; 10 mg/kg i.p. Day 2 and Day 4, food ad libitum
  body weight, food intake, muscle and fat mass, energy expenditure and Respiratory Exchange Ratio (RER) compared to the controls: decreases
[4]; 10 mg/kg i.p., paired-feeding, 5-day period
  weight loss versus pair-fed control antibody treated animals: identical weight-loss trajectories
FGFR-1; antibody
  inhibition of ligand (FGF) mediated receptor phosphorylation: significantly inhibits
FGFR-1; no ligand
  receptor activation by the antibody by itself: does not activate the receptor
FGFR-1(IIIc)
  binding to FGFR-1(IIIc): strong affinities
